The supplement of paper PMC10567573

B1: TRIM15 (parent)
chain: LSQMGAQSSGKILLCPLCQEEEQA
B2: ACSBG2 (parent)
chain: FAQADALKGTLVSTLKEVKPTVFI

Variants of: B1
Assay: protein stability index of a GFP-peptide fusion (GPS, HEK-293T) (PSI 1-6); higher = more stable
Conditions: c terminus: a fixed tail appended
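Further: lentivirally expressed fusions sorted by FACS into six bins by GFP to DsRed ratio, PSI derived from sequencing read proportions per bin multiplied by bin number.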

Variant | protein stability index
LSQMGAGSSGKILLCPLCQEEEQA [Q7G] | 3.58
LSQMGADSSGKILLCPLCQEEEQA [Q7D] | 3.88
LSQMGAQSSGKILLCPPCQEEEQA [L17P] | 5.04
LSQMGAQSSGKILLCPSCQEEEQA [L17S] | 4.24
LSQMGAQSSGKILLCPRCQEEEQA [L17R] | 4.31
LSQMGAQSSDKILLCPLCQEEEQA [G10D] | 4.3
LSQMGAQSSGKILLCFLCQEEEQA [P16F] | 4.36
LSQMGAQSSGKILLCLLCQEEEQA [P16L] | 3.37
LSQMGAQTSGKILLCPLCQEEEQA [S8T] | 3.55
ISQMGAQSSGKILLCPLCQEEEQA [L1I] | 3.38
YSQMGAQSSGKILLCPLCQEEEQA [L1Y] | 2.65
LSQMQAQSSGKILLCPLCQEEEQA [G5Q] | 3.92
LSQMNAQSSGKILLCPLCQEEEQA [G5N] | 3.39
LSCMGAQSSGKILLCPLCQEEEQA [Q3C] | 3.18
LSQMGAQSWGKILLCPLCQEEEQA [S9W] | 2.96
LSQMGAQSSGKILLCPLCQEREQA [E21R] | 2.48
LSQMGAQSSGKILLCPLCQECEQA [E21C] | 2.55
LSQMGAQSSGKILLCPLCQEEQQA [E22Q] | 3.2
LSQMGAQSSGKILLCPLCQEEAQA [E22A] | 4.08
LSQMGAQSSGKILLCPLCQEECQA [E22C] | 2.82
LSQMGAQSSGKILLCPLCQEEKQA [E22K] | 3.74
LSQMGAQSSGKILLCPLCQEEHQA [E22H] | 3.67
LSQMGAQSSGKILLRPLCQEEEQA [C15R] | 4.43
LSQMGAQSSGKILLCPLCQTEEQA [E20T] | 3.19
LSQMGAQSSGKILRCPLCQEEEQA [L14R] | 4.15
LSQMGAQSSGKILMCPLCQEEEQA [L14M] | 3.98
LSQMGAQSSGKILLCPLCHEEEQA [Q19H] | 3.24
LSQMGAQSSGKALLCPLCQEEEQA [I12A] | 4.19
LSQMGAQSSGYILLCPLCQEEEQA [K11Y] | 2.64

Variants of: B2
Assay: as above
Conditions: c terminus: a fixed tail appended

Variant | protein stability index
FAQADALKGTLVSTLKEVKPTRFI [V22R] | 2.94
FAQADALKGTLVSTLKEVKPTIFI [V22I] | 2.43
FAQADALKGTLVSTLKEVKPTPFI [V22P] | 2.02
FAQADALKGTLVSTLKEVKPTKFI [V22K] | 2.45
FAQADALKGTLVSTLKEVKPTTFI [V22T] | 2.77
FAQADALKGTLVSTLKEVKPTSFI [V22S] | 2.05
FAQADALKGTLVSTLKEVKPTQFI [V22Q] | 2.28
FAQADALKGTLVSTLKEVKPTYFI [V22Y] | 1.67
FAQADALKGTLVSTLKEVKPTLFI [V22L] | 1.3
FAQADALKGTLVSTLKEVKPTHFI [V22H] | 1.92
FAQADALKGTLVSTLKEVKPTCFI [V22C] | 2.18
FAQADALKGTLVSTLKEVKPTGFI [V22G] | 2.25
FAQADALKGTLVSTLKEVKPTDFI [V22D] | 2.99
FAQADALKGTLVSTLKEVKPTFFI [V22F] | 1.67
FAQADALKGTLVSTLKEVKPTNFI [V22N] | 1.98
FAQADALKGTLVSTLKEVKPTAFI [V22A] | 2.73
FAQADALKGTLVSTLKEVKPTEFI [V22E] | 1.94
FAQADALKGTLVSTLKEVKPTVQI [F23Q] | 2.16
FAQADALKGTLVSTLKEVKPTVYI [F23Y] | 2.32
FAQADALKGTLVSTLKEVKPTVMI [F23M] | 1.86
FAQADALKGTLVSTLKEVKPTVKI [F23K] | 2.69
FAQADALKGTLVSTLKEVKPTVRI [F23R] | 2.64

Variant | protein stability index
FAQADALKGTLVSTLKEVKPTVDI [F23D] | 2.62
FAQADALKGTLVSTLKEVKPTVTI [F23T] | 1.73
FAQADALKGTLVSTLKEVKPTVWI [F23W] | 2.2
FAQADALKGTLVSTLKEVKPTVAI [F23A] | 1.96
FAQADALKGTLVSTLKEVKPTVCI [F23C] | 2.52
FAQADALKGTLVSTLKEVKPTVHI [F23H] | 1.75
FAQADALKGTLVSTLKEVKPTVPI [F23P] | 2.76
FAQADALKGTLVSTLKEVKPTVGI [F23G] | 2.36
FAQADALKGTLVSTLKEVKPTVII [F23I] | 1.65
FAQADALKGTLVSTLKEVKPTVEI [F23E] | 2.3
FAQADALKGTLVSTLKEVKPTVSI [F23S] | 2.16
FAQADALKGTLVSTLKEVKPTVVI [F23V] | 2.18
FAQADALKGTLVSTLKEVKPTVNI [F23N] | 1.69
FAQADALKGTLVSTLKEVKPTVLI [F23L] | 2.52
FAQADALKGTLVSTLKEVKPTVFP [I24P] | 2.27
FAQADALKGTLVSTLKEVKPTVFN [I24N] | 3.24
FAQADALKGTLVSTLKEVKPTVFL [I24L] | 1.05
FAQADALKGTLVSTLKEVKPTVFW [I24W] | 1.26
FAQADALKGTLVSTLKEVKPTVFA [I24A] | 1.98
FAQADALKGTLVSTLKEVKPTVFC [I24C] | 2.92
FAQADALKGTLVSTLKEVKPTVFG [I24G] | 2.08
FAQADALKGTLVSTLKEVKPTVFM [I24M] | 1.16

Variant | protein stability index
FAQADALKGTLVSTLKEVKPTVFK [I24K] | 2.41
FAQADALKGTLVSTLKEVKPTVFV [I24V] | 1.83
FAQADALKGTLVSTLKEVKPTVFF [I24F] | 4.5
FAQADALKGTLVSTLKEVKPTVFH [I24H] | 2.02
FAQADALKGTLVSTLKEVKPTVFQ [I24Q] | 2.23
FAQADALKGTLVSTLKEVKPTVFS [I24S] | 2.27
FAQADALKGTLVSTLKEVKPTVFT [I24T] | 2.36
FAQADALKGTLVSTLKEVKPTVFD [I24D] | 2.88
FAQADALKGTLVSTLKEVKPHVFI [T21H] | 1.61
FAQADALKGTLVSTLKEVKPNVFI [T21N] | 1.92
FAQADALKGTLVSTLKEVKPGVFI [T21G] | 2.14
FAQADALKGTLVSTLKEVKPPVFI [T21P] | 1.22
FAQADALKGTLVSTLKEVKPMVFI [T21M] | 1.82
FAQADALKGTLVSTLKEVKPVVFI [T21V] | 4.03
FAQADALKGTLVSTLKEVKPSVFI [T21S] | 2.35
FAQADALKGTLVSTLKEVKPIVFI [T21I] | 4.12
FAQADALKGTLVSTLKEVKPWVFI [T21W] | 3.06
FAQADALKGTLVSTLKEVKPKVFI [T21K] | 1.14
FAQADALKGTLVSTLKEVKPQVFI [T21Q] | 1.32
FAQADALKGTLVSTLKEVKPRVFI [T21R] | 2
FAQADALKGTLVSTLKEVKPYVFI [T21Y] | 1.64
